pKd: −log10 of the molar value.

This experiment concerns the target GST-Rac1^QP (UniProt P63000). Briefly: pull-down.

In general, pKd refers to the Kd on a negative log10 scale, so that one unit is a factor of ten. A high value points to a small Kd. With “WRC^Y967A (from UniProt Q7L576 1-1253; Q9Y2A7 1-1128; Q92558 1-230; Q9NYB9 1-158; Q8WUW1 1-75) (complex)”, the pKd is 5.70.

Source of the values: doi:10.1101/2022.05.13.491857.
